± gives the uncertainty stated by the source.
Test: self-splicing fitness, log relative to wild type (ln ratio); higher = more splicing; Tetrahymena group I intron in knt gene, E. coli kanamycin selection, DiMSum; sequences stand for … in CUCUCU…GGAGGGAAAAGUUAUCAGGCAUGCACCUGGUAGCUAGUCUUUAAACCAAUAGAUUGCAUCGGUUUAAAAGGCAAGACCGUCAAAUUGCGGGAAAGGGGUCAACAGCCGUUCAGUACCAAGUCUCAGGGGAAACUUUGAGAUGGCCUUGCAAAGGGUAUGGUAAUAAGCUGACGGACAUGGUCCUAACCACGCAGCCAAGUCCUAAGUCAACAGAUCUUCUGUUGAUAUGGAUGCAGUUCACAGACUAAAUGUCGGUCGGGGAAGAUGUAUUCUUCUCAUAAGAUAUAGUCGGACCUCUCCUUAAUGGGAGCUAGCGGAUGAAGUGAUGCAACACUGGAGCCGCUGGGAACUAAUUUGUAUGCGAAAGUAUAUUGAUUAGUUUUGGAGUACUCGUGGUCG
Method in brief: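 DiMSum derived fitness as the error-weighted combination of fold changes across replicates, kanamycin versus no kanamycin, normalised to wild type. E. coli BL21(DE3) held the library, which randomised all eight P1ex-region intron nucleotides within the knt kanamycin-resistance gene on pET-22b(+). Six replicate transformations grew overnight at 37°C or 30°C on LB agar with or without 25 μg/mL kanamycin, also containing 100 μg/mL carbenicillin, 50 μM IPTG and 0.2% rhamnose, and pooled colonies were amplicon-sequenced on an Illumina HiSeq 2500.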

Sequence | self-splicing fitness (ln) (30 °C) | self-splicing fitness (ln) (37 °C)
AUGCAGCAAUAUUACGGUAG | -3.81 ± 0.16 | -2.4 ± 0.14
AUGCAGCAAUAUUACGGUCC | -1.85 ± 0.16 | -0.88 ± 0.17
AUGCAGCAAUAUUACGUAGU | -1.46 ± 0.088 | -0.542 ± 0.089
AUGCAGCAAUAUUACGUGAA | -2.44 ± 0.12 | -0.683 ± 0.13
AUGCAGCAAUAUUACGUGCC | -1.08 ± 0.11 | -0.869 ± 0.15
AUGCAGCAAUAUUACGUGCG | -0.943 ± 0.061 | -0.294 ± 0.076
AUGCAGCAAUAUUACGUUAC | -3.57 ± 0.3 | -1.54 ± 0.22
AUGCAGCAAUAUUACGUUAG | -3.05 ± 0.15 | -2.38 ± 0.2
AUGGAGCAAUAUUACGAUAG | -3.59 ± 0.4 | -1.67 ± 0.32
AUGGAGCAAUAUUACGCAAG | -4.55 ± 0.42 | -1.09 ± 0.31
AUGGAGCAAUAUUACGCAUU | -3.12 ± 0.22 | -1.84 ± 0.22
AUGGAGCAAUAUUACGCCUA | -0.868 ± 0.14 | -0.981 ± 0.18
AUGGAGCAAUAUUACGCGCG | -2.41 ± 0.17 | -1.27 ± 0.19
AUGGAGCAAUAUUACGCGUU | -3.93 ± 0.21 | -3.05 ± 0.24
AUGGAGCAAUAUUACGGAUG |  | -2.29 ± 0.37
AUGGAGCAAUAUUACGGGAC | -5.23 ± 0.41 | -2.7 ± 0.25
AUGGAGCAAUAUUACGGGGG | -3.55 ± 0.43 | -2.21 ± 0.35
AUGGAGCAAUAUUACGUAAC | -2.91 ± 0.34 | -2.29 ± 0.46
AUGGAGCAAUAUUACGUAGC |  | -1.93 ± 0.3
AUGGAGCAAUAUUACGUAUA | -1.75 ± 0.45 | -2.02 ± 0.36
AUGGAGCAAUAUUACGUCCA | -0.783 ± 0.45 | -0.778 ± 0.34
AUGGAGCAAUAUUACGUCCU | -0.886 ± 0.24 | -1.35 ± 0.29
AUGGAGCAAUAUUACGUGCG | -3.44 ± 0.32 | -1.8 ± 0.23
AUGGAGCAAUAUUACGUUCA | -1.16 ± 0.12 | -0.311 ± 0.14
AUGGAGCAAUAUUACGUUGG | -4.65 ± 0.39 | -2.35 ± 0.23

Sequence | self-splicing fitness (ln) (30 °C) | self-splicing fitness (ln) (37 °C)
AUGUAGCAAUAUUACGAACC | -1 ± 0.18 | -0.513 ± 0.22
AUGUAGCAAUAUUACGAAGA |  | -0.739 ± 0.21
AUGUAGCAAUAUUACGAAUC |  | -2.91 ± 0.29
AUGUAGCAAUAUUACGACUC | 0.285 ± 0.12 | 0.585 ± 0.18
AUGUAGCAAUAUUACGCAGU | -2.49 ± 0.12 | -1.29 ± 0.11
AUGUAGCAAUAUUACGCAUU | -3.93 ± 0.18 | -2.89 ± 0.23
AUGUAGCAAUAUUACGCCAA | -0.877 ± 0.19 | -1.5 ± 0.19
AUGUAGCAAUAUUACGCCCA | -0.905 ± 0.12 | -0.148 ± 0.2
AUGUAGCAAUAUUACGCCCU | 0.267 ± 0.097 | 0.0833 ± 0.098
AUGUAGCAAUAUUACGCUCG | -0.227 ± 0.078 | 0.00954 ± 0.13
AUGUAGCAAUAUUACGGAUG | -3.13 ± 0.31 | -2.82 ± 0.41
AUGUAGCAAUAUUACGGCCG | -2.32 ± 0.31 | -0.303 ± 0.33
AUGUAGCAAUAUUACGGCUC | 0.231 ± 0.27 | 
AUGUAGCAAUAUUACGGGAA | -2.34 ± 0.38 | -3.07 ± 0.47
AUGUAGCAAUAUUACGGGCG | -1.33 ± 0.091 | -1.28 ± 0.1
AUGUAGCAAUAUUACGGGGC | -4.82 ± 0.34 | -2.87 ± 0.19
AUGUAGCAAUAUUACGGUCA | -0.793 ± 0.14 | -0.745 ± 0.13
AUGUAGCAAUAUUACGGUGC | -2.55 ± 0.3 | 
AUGUAGCAAUAUUACGUACU | -0.0156 ± 0.06 | -0.16 ± 0.073
AUGUAGCAAUAUUACGUAGA | -3.11 ± 0.32 | -2.65 ± 0.29
AUGUAGCAAUAUUACGUCGG | -3.01 ± 0.35 | -2.18 ± 0.28
AUGUAGCAAUAUUACGUGAC | -4.13 ± 0.34 | -0.782 ± 0.2
AUGUAGCAAUAUUACGUGCU | -1.29 ± 0.081 | -0.985 ± 0.09
AUGUAGCAAUAUUACGUUAA | -3.07 ± 0.22 | -2.3 ± 0.14
AUGUAGCAAUAUUACGUUGU | -3.85 ± 0.15 | -1.27 ± 0.092

Sequence | self-splicing fitness (ln) (30 °C) | self-splicing fitness (ln) (37 °C)
AUGUAGCAAUAUUACGUUUC | -2.86 ± 0.24 | -2.55 ± 0.26
AUUAAGCAAUAUUACGACGG | -2.32 ± 0.23 | -2.54 ± 0.41
AUUAAGCAAUAUUACGACGU | 0.564 ± 0.087 | 0.495 ± 0.093
AUUAAGCAAUAUUACGACUC | 0.675 ± 0.23 | -0.203 ± 0.36
AUUAAGCAAUAUUACGAGCG | -0.827 ± 0.1 | -0.58 ± 0.13
AUUAAGCAAUAUUACGAUAA | -1.48 ± 0.12 | -0.391 ± 0.14
AUUAAGCAAUAUUACGAUUG | -2.98 ± 0.15 | -1.86 ± 0.2
AUUAAGCAAUAUUACGCAAU | -1.74 ± 0.13 | -2.34 ± 0.23
AUUAAGCAAUAUUACGCCAU | -1.86 ± 0.2 | -1.52 ± 0.15
AUUAAGCAAUAUUACGCCUC | -2.77 ± 0.18 | -1.42 ± 0.16
AUUAAGCAAUAUUACGCGUC | -2.77 ± 0.3 | -2.19 ± 0.38
AUUAAGCAAUAUUACGCGUU | -1.78 ± 0.11 | -0.33 ± 0.12
AUUAAGCAAUAUUACGCUGA | -2.36 ± 0.41 | -0.862 ± 0.28
AUUAAGCAAUAUUACGCUGG | -1.25 ± 0.12 | -1.39 ± 0.22
AUUAAGCAAUAUUACGGAAG | -3.07 ± 0.17 | -1.29 ± 0.2
AUUAAGCAAUAUUACGGGAA | -2.09 ± 0.26 | -1.43 ± 0.23
AUUAAGCAAUAUUACGGUAG | -4.09 ± 0.29 | -2.57 ± 0.22
AUUAAGCAAUAUUACGGUCC | -0.321 ± 0.14 | -0.358 ± 0.19
AUUAAGCAAUAUUACGGUGG | -3.17 ± 0.28 | -1.94 ± 0.22
AUUAAGCAAUAUUACGUACC | -2.05 ± 0.23 | 0.0479 ± 0.26
AUUAAGCAAUAUUACGUCAA | -2.1 ± 0.22 | -0.766 ± 0.16
AUUAAGCAAUAUUACGUGAA | -1.55 ± 0.14 | -1.5 ± 0.11
AUUAAGCAAUAUUACGUGGA | -3.32 ± 0.2 | -1.05 ± 0.12
AUUAAGCAAUAUUACGUGGC | -2.43 ± 0.15 | -1.71 ± 0.16
AUUAAGCAAUAUUACGUGUU | -2.6 ± 0.11 | -0.83 ± 0.098

Sequence | self-splicing fitness (ln) (30 °C) | self-splicing fitness (ln) (37 °C)
AUUAAGCAAUAUUACGUUCC | -3.07 ± 0.29 | -0.839 ± 0.27
AUUCAGCAAUAUUACGAAAU | -1 ± 0.091 | -0.557 ± 0.1
AUUCAGCAAUAUUACGACCA | -0.206 ± 0.26 | 0.501 ± 0.29
AUUCAGCAAUAUUACGAUCU | -0.272 ± 0.057 | 0.457 ± 0.078
AUUCAGCAAUAUUACGCACU | -0.181 ± 0.062 | 0.535 ± 0.086
AUUCAGCAAUAUUACGCAUA | -0.701 ± 0.15 | -1.07 ± 0.14
AUUCAGCAAUAUUACGCCAA | -2.22 ± 0.29 | -1.19 ± 0.27
AUUCAGCAAUAUUACGCCUU | -0.723 ± 0.079 | -0.133 ± 0.096
AUUCAGCAAUAUUACGCGGU | -3 ± 0.14 | -2.21 ± 0.15
AUUCAGCAAUAUUACGCUAA | -0.96 ± 0.094 | -0.0329 ± 0.1
AUUCAGCAAUAUUACGGAUG | -0.985 ± 0.079 | -0.448 ± 0.097
AUUCAGCAAUAUUACGGCCC | -0.851 ± 0.16 | -0.422 ± 0.21
AUUCAGCAAUAUUACGGGAA | -1.36 ± 0.12 | -0.871 ± 0.13
AUUCAGCAAUAUUACGUAUU | -0.474 ± 0.065 | -0.558 ± 0.092
AUUCAGCAAUAUUACGUGCC | -1.51 ± 0.1 | -0.682 ± 0.14
AUUCAGCAAUAUUACGUGUG | -1.9 ± 0.062 | -0.699 ± 0.067
AUUGAGCAAUAUUACGAAAA | -2.45 ± 0.41 | 
AUUGAGCAAUAUUACGAAGG | -2.69 ± 0.36 | -2.39 ± 0.3
AUUGAGCAAUAUUACGACGA | -3.19 ± 0.4 | -0.517 ± 0.22
AUUGAGCAAUAUUACGAGAC |  | -0.883 ± 0.45
AUUGAGCAAUAUUACGAGGU | -3.14 ± 0.36 | -2.02 ± 0.36
AUUGAGCAAUAUUACGCAAC | -3.42 ± 0.26 | -2.26 ± 0.39

Reference: the supplement of paper PMC7877785
